Where two headings read alike, the source gives them in different places.
Legend:
[1] = molecular target: Arabidopsis thaliana CDC48A (Arabidopsis thaliana) (UniProt P54609); assay: ITC
[2] = molecular target: Arabidopsis thaliana CDC48A (Arabidopsis thaliana) (UniProt P54609); assay: cross-linking + SEC-MALS
[3] = molecular target: Arabidopsis thaliana CDC48A (Arabidopsis thaliana) (UniProt P54609); assay: ITC; remark: listed apart in the source
[4] = molecular target: Arabidopsis thaliana NPL4 (Arabidopsis thaliana) (UniProt O82264); assay: MST
[5] = molecular target: Arabidopsis thaliana NPL4 (Arabidopsis thaliana) (UniProt O82264); assay: MST; remark: listed apart in the source

Arabidopsis thaliana CDC48A (Arabidopsis thaliana), sequence (P54609 whole entry): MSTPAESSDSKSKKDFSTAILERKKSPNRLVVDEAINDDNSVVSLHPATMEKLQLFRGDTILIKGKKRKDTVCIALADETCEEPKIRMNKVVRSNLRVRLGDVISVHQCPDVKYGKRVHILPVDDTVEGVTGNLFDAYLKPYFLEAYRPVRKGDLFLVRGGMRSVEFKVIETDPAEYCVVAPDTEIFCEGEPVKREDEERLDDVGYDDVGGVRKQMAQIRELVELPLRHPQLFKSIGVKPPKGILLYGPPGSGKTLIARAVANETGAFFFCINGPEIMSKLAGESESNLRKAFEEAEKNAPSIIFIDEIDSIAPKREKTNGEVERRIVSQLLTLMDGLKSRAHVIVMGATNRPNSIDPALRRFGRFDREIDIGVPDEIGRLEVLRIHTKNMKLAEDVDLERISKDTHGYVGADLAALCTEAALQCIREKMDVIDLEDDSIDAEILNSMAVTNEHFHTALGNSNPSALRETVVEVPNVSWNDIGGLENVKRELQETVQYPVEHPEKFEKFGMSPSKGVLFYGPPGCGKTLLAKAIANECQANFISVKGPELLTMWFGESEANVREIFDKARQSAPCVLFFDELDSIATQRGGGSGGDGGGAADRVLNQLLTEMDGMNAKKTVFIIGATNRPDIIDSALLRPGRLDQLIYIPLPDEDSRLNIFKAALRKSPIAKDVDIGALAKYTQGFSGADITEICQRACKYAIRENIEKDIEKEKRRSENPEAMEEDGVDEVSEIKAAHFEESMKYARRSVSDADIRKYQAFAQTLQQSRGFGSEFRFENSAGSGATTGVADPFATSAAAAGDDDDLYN
Arabidopsis thaliana NPL4 (Arabidopsis thaliana), sequence (O82264 whole entry): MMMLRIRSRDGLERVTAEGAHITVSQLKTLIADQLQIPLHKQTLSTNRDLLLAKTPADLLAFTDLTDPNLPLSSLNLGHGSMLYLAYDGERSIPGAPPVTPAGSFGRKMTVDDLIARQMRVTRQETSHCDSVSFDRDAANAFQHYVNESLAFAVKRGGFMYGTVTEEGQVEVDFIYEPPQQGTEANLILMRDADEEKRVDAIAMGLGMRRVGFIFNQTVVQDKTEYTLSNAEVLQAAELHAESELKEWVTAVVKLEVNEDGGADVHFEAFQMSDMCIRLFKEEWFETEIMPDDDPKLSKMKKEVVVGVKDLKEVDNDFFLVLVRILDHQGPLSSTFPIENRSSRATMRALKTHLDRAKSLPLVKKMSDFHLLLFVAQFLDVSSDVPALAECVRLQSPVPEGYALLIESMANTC

Kd [1] | stoichiometry N (copy per six AtCDC48A) [2] | Kd [3] | stoichiometry N (AtNPL4 per AtCDC48A hexamer) [3] | Kd [4] | Kd [5] | stoichiometry N (cofactor per AtCDC48A hexamer) [3] | Substance
7.1 µM | 1 | 2.6 µM | 1 |  |  |  | Arabidopsis thaliana NPL4 (from UniProt O82264 1-413) (natural protein)
 |  |  |  | > 200 µM | > 200 µM |  | Arabidopsis thaliana UFD1A (natural protein)
 | 1 | 4.4 µM |  |  |  | 1 | Arabidopsis thaliana UFD1B (from UniProt Q9SJV0 1-340) (natural protein)

Reference: publication doi:10.1101/2025.03.28.645892
